Data: patent US20260077071A1, “Targeted Delivery of Theranostic Agents” (Peter MacCallum Cancer Institute, priority 2022, published 2026)
Square brackets hold non-standard residues; d marks the D form. Peptide text beside a SMILES is read from it. * marks the point of attachment. DOTA = O=C(O)CN1CCN(CC(=O)O)CCN(CC(=O)*)CCN(CC(=O)O)CC1; NMe1Nal = CN[C@@H](Cc1cccc2ccccc12)C(=O)O; 1Nal = N[C@@H](Cc1cccc2ccccc12)C(=O)O; NMeF = CN[C@@H](Cc1ccccc1)C(=O)O; NMeNle = CCCC[C@H](NC)C(=O)O; Sar = CNCC(=O)O

Assays:
[1] = in vitro; format: in vitro ADME, mouse; conditions: for remaining at 1.5 h: mouse, pH 7.3
Protocol: Drug detoxification, drug metabolism and metabolic stability are important determinants of the efficacy of theranostic candidates in clinical settings. To assess metabolic stability, radiolabelled Compounds [^68Ga]Ga-1-4 and comparative example-2 ([^68Ga]Ga-Cmp ex-2) were challenged by incubation in either human serum, mouse liver or kidney homogenates and HEPES buffer as a negative control. Duplicate samples (750-900 pmol/mL) were incubated at 37° C. with pooled human serum, 15% mouse kidney homogenate, 30% mouse liver homogenate or 20 mM HEPES, pH 7.3 (control). Human blood was collected and serum prepared using SSTII advance vacutainer tubes according to the manufacturer's instructions (Becton Dickinson, New Jersey, USA). Mouse kidney and liver homogenates were prepared by washing the tissues in ice-cold HEPES buffer, pH 7.3 and placing them in pre-chilled tubes containing HEPES buffer and 2.38 mm metal beads (Mo-Bio Laboratories, Hilden, Germany). Tissues were homogenised using the PowerLyzer24 homogeniser (Qiagen, Hilden, Germany) according to the manufacturer's instructions. Ga-68 radiolabelled peptides were incubated with the various lysates at 37° C. and samples were collected at 15, 30, 60 and 90 min. Reactions were terminated by addition of an equal volume of acetonitrile and centrifugation for 2 min at 15,000 rpm. Supernatants were diluted in water before being analysed by HPLC using a Kinetex C18 XB column (5 μm 4.6×150 mm), eluted at 1.5 mL/min of gradient 20-60% MeCN in water containing 0.1% formic acid over 7 min.

[2] = LogD7.4 determination (PBS pH 7.4 / n-octanol); format: physicochemical; conditions: PBS/Octanol mix, n = 5
Protocol: The distribution coefficients (LogD7.4) of radiolabelled compounds [^68Ga]Ga-1-4, and [^68Ga]Ga-Cmp ex-2 were assayed by measuring radioactivity distribution in the aqueous phase (phosphate buffer pH7.4) and the organic phase (n-octanol). To determine the distribution coefficient (LogD), Ga-68 radiolabelled compounds were diluted to 20 pmol/mL in PBS (pH 7.4) and an equal volume of n-octanol was added. The mixture was vortexed vigorously for 10 cycles of 1 min at room temperature before being centrifuged for 6 min to separate the two phases. Equal volumes from each phase were aliquoted into individual counting tubes and analysed for 1 min using the Perkin Elmer 2480 Wizard2™ gamma counter (PerkinElmer, Massachusetts, USA). The distribution coefficient was calculated using the following equation [formula]

[3] = molecular target: T1, human full-length CCK-2 receptor (Homo sapiens, UniProt P32239); assay: Competitive ligand binding against [^177Lu]Lu-DOTA-CP04 in A431-CCK-2R cells; conditions: ^natGa chelated DOTA-compounds based on Peptide C (Table 5); read-out: IC50
T1 construct: stably transfected to over-express the human full-length CCK-2 receptor (A431-CCK-2R); expressed in transfected cells
T1 sequence (P32239 1-447): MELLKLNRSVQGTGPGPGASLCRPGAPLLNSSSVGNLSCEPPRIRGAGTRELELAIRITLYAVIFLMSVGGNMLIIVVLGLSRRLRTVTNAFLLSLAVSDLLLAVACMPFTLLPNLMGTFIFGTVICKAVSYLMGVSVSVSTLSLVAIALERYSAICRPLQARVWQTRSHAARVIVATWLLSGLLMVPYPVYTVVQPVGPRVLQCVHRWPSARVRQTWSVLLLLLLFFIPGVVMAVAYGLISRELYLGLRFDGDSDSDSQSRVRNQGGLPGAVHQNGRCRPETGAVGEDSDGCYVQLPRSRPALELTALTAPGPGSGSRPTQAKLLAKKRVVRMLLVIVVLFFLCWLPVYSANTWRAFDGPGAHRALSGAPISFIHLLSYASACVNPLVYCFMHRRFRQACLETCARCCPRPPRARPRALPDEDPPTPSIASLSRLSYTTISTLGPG
Protocol: CCK-2 receptor binding experiments were conducted using A431 (human epidermoid carcinoma) cells stably transfected to over-express the human full-length CCK-2 receptor (A431-CCK-2R). As a negative control, A431 cells stably transfected with an empty vector were analysed simultaneously (A431-EV). A431 cells were maintained in DMEM (Gibco, Australia) media supplemented with 10% foetal calf serum and 250 μg/mL G418 as described previously (Aloj L, et al., J Nucl Med., 2004, Mar; 45(3), 485-94). The affinity of peptides for the CCK-2R was evaluated using competitive binding assays against [^177Lu]Lu-DOTA-CP04 in A431-CCK-2R cells. Briefly, 48 h before the experiment cells were plated at a density of 650,000 cells per well in 6 well plates. On the day of the experiment the peptides were diluted in DMEM supplemented with 1% foetal calf serum to at least 7 different concentrations (0-400 nM) and approximately 50,000 cpm of [^177Lu]Lu-DOTA-CP04 was added to each dilution. Cells were washed twice in ice-cold binding buffer (DMEM supplemented with 1% foetal calf serum) and resuspended in 1.5 mL of the pre-prepared compound mix before being incubated at 37° C. for 1 h. Post-incubation the media was removed and kept for analysis (unbound fraction) and the cells were washed twice in ice-cold binding buffer, which was pooled with the unbound fraction. Finally, 1 M NaOH was added to the cells and allowed to incubate for 5 min before lysates were collected (bound fraction). A small volume of lysate was kept aside to determine protein concentration using the Pierce® BCA protein assay kit (Thermo Fisher, Australia). All samples were analysed using the Perkin Elmer 2480 Wizard2™ gamma counter (PerkinElmer, Massachusetts, USA) and were normalised according to protein concentration. Half-maximal inhibitory concentrations (IC50) were determined using nonlinear regression calculated using GraphPad Prism Software (GraphPad Software, California, USA).
The compounds were evaluated for their ability to disrupt the binding between CCK-2 receptor (CCK-2R) and [^177Lu]Lu-DOTA-CP04 using the methodology described above and compared to comparative example-2 (FIG. 2; Table 5).

Compound | remaining at 1.5 h ([1]; tissue homogenate) [%] | metabolism in kidney homogenates [1] | metabolism in liver homogenates [1] | remaining at 1.5 h ([1]; other tissue homogenate) [%] | LogD7.4 [2] | IC50 [3] [nM]
CCCC[C@@H](C(=O)N[C@@H](CC(=O)O)C(=O)N(C)[C@@H](Cc1cccc2ccccc12)C(N)=O)N(C)C(=O)[C@H](Cc1c[nH]c2ccccc12)NC(=O)CN(C)C(=O)[C@H](Cc1ccc(O)cc1)NC(=O)[C@H](C)NC(=O)[C@@H](CCC(=O)O)NC(=O)[C@@H](CCC(=O)O)NC(=O)[C@@H](CCC(=O)O)NC(=O)[C@@H](C)NC(=O)[C@@H](CCC(=O)O)NC(=O)[C@@H](CCC(=O)O)NC(=O)CN1CCN(CC(=O)O)CCN(CC(=O)O)CCN(CC(=O)O)CC1 [Compound 4] ({DOTA}-[dE][dE][dA][dE][dE][dE]AY[Sar]W[NMeNle]D[NMe1Nal]-NH2) | 100 |  |  |  |  | 
CCCC[C@@H](C(=O)N[C@@H](CC(=O)O)C(=O)N[C@@H](Cc1cccc2ccccc12)C(N)=O)N(C)C(=O)[C@H](Cc1c[nH]c2ccccc12)NC(=O)CN(C)C(=O)[C@H](Cc1ccc(O)cc1)NC(=O)[C@H](C)NC(=O)[C@@H](CCC(=O)O)NC(=O)[C@@H](CCC(=O)O)NC(=O)[C@@H](CCC(=O)O)NC(=O)[C@@H](C)NC(=O)[C@@H](CCC(=O)O)NC(=O)[C@@H](CCC(=O)O)NC(=O)CN1CCN(CC(=O)O)CCN(CC(=O)O)CCN(CC(=O)O)CC1 [[^68Ga]Ga-1, metal not drawn] ({DOTA}-[dE][dE][dA][dE][dE][dE]AY[Sar]W[NMeNle]D[1Nal]-NH2) | 85 | significant metabolism | significant metabolism | 75 | −2.88 ± 0.09 | 
CCCC[C@@H](C(=O)N[C@@H](CC(=O)O)C(=O)N(C)[C@@H](Cc1ccccc1)C(N)=O)N(C)C(=O)[C@H](Cc1c[nH]c2ccccc12)NC(=O)CN(C)C(=O)[C@H](Cc1ccc(O)cc1)NC(=O)[C@H](C)NC(=O)[C@@H](CCC(=O)O)NC(=O)[C@@H](CCC(=O)O)NC(=O)[C@@H](CCC(=O)O)NC(=O)[C@@H](C)NC(=O)[C@@H](CCC(=O)O)NC(=O)[C@@H](CCC(=O)O)NC(=O)CN1CCN(CC(=O)O)CCN(CC(=O)O)CCN(CC(=O)O)CC1 [[^68Ga]Ga-2, metal not drawn] ({DOTA}-[dE][dE][dA][dE][dE][dE]AY[Sar]W[NMeNle]D[NMeF]-NH2) |  | no observable metabolites detected | no observable metabolites detected |  | −3.56 ± 0.01 | 
CCCC[C@@H](C(=O)N[C@@H](CC(=O)O)C(=O)N[C@@H](Cc1ccccc1)C(N)=O)N(C)C(=O)[C@H](Cc1c[nH]c2ccccc12)NC(=O)CN(C)C(=O)[C@H](Cc1ccc(O)cc1)NC(=O)[C@H](C)NC(=O)[C@@H](CCC(=O)O)NC(=O)[C@@H](CCC(=O)O)NC(=O)[C@@H](CCC(=O)O)NC(=O)[C@@H](C)NC(=O)[C@@H](CCC(=O)O)NC(=O)[C@@H](CCC(=O)O)NC(=O)CN1CCN(CC(=O)O)CCN(CC(=O)O)CCN(CC(=O)O)CC1 [[^68Ga]Ga-3, metal not drawn] ({DOTA}-[dE][dE][dA][dE][dE][dE]AY[Sar]W[NMeNle]DF-NH2) | ~35 | significant metabolism | significant metabolism | 20 | −4.06 ± 0.14 | 
CCCC[C@@H](C(=O)N[C@@H](CC(=O)O)C(=O)N(C)[C@@H](Cc1ccccc1)C(N)=O)N(C)C(=O)[C@H](Cc1c[nH]c2ccccc12)NC(=O)CN(C)C(=O)[C@H](Cc1ccc(O)cc1)NC(=O)[C@H](C)NC(=O)[C@@H](CCC(=O)O)NC(=O)[C@@H](CCC(=O)O)NC(=O)[C@@H](CCC(=O)O)NC(=O)[C@@H](C)NC(=O)[C@@H](CCC(=O)O)NC(=O)[C@@H](CCC(=O)O)NC(=O)CN1CCN(CC(=O)O)CCN(CC(=O)O)CCN(CC(=O)O)CC1 [^natGa-2, metal not drawn] ({DOTA}-[dE][dE][dA][dE][dE][dE]AY[Sar]W[NMeNle]D[NMeF]-NH2) |  |  |  |  |  | 0.185
CCCC[C@@H](C(=O)N[C@@H](CC(=O)O)C(=O)N[C@@H](Cc1ccccc1)C(N)=O)N(C)C(=O)[C@H](Cc1c[nH]c2ccccc12)NC(=O)CN(C)C(=O)[C@H](Cc1ccc(O)cc1)NC(=O)[C@H](C)NC(=O)[C@@H](CCC(=O)O)NC(=O)[C@@H](CCC(=O)O)NC(=O)[C@@H](CCC(=O)O)NC(=O)[C@@H](C)NC(=O)[C@@H](CCC(=O)O)NC(=O)[C@@H](CCC(=O)O)NC(=O)CN1CCN(CC(=O)O)CCN(CC(=O)O)CCN(CC(=O)O)CC1 [^natGa-3, metal not drawn] ({DOTA}-[dE][dE][dA][dE][dE][dE]AY[Sar]W[NMeNle]DF-NH2) |  |  |  |  |  | 0.042
CCCC[C@@H](C(=O)N[C@@H](CC(=O)O)C(=O)N(C)[C@@H](Cc1cccc2ccccc12)C(N)=O)N(C)C(=O)[C@H](Cc1c[nH]c2ccccc12)NC(=O)CN(C)C(=O)[C@H](Cc1ccc(O)cc1)NC(=O)[C@H](C)NC(=O)[C@@H](CCC(=O)O)NC(=O)[C@@H](CCC(=O)O)NC(=O)[C@@H](CCC(=O)O)NC(=O)[C@@H](C)NC(=O)[C@@H](CCC(=O)O)NC(=O)[C@@H](CCC(=O)O)NC(=O)CN1CCN(CC(=O)O)CCN(CC(=O)O)CCN(CC(=O)O)CC1 [^natGa-4, metal not drawn] ({DOTA}-[dE][dE][dA][dE][dE][dE]AY[Sar]W[NMeNle]D[NMe1Nal]-NH2) |  |  |  |  |  | 0.096
CCCC[C@@H](C(=O)N[C@@H](CC(=O)O)C(=O)N(C)[C@@H](Cc1cccc2ccccc12)C(N)=O)N(C)C(=O)[C@H](Cc1c[nH]c2ccccc12)NC(=O)CN(C)C(=O)[C@H](Cc1ccc(O)cc1)NC(=O)[C@H](C)NC(=O)[C@@H](CCC(=O)O)NC(=O)[C@@H](CCC(=O)O)NC(=O)[C@@H](CCC(=O)O)NC(=O)[C@@H](CCC(=O)O)NC(=O)[C@@H](CCC(=O)O)NC(=O)[C@@H](CCC(=O)O)NC(=O)CN1CCN(CC(=O)O)CCN(CC(=O)O)CCN(CC(=O)O)CC1 [^natGa-Cmp ex-2, metal not drawn, reference compound] ({DOTA}-[dE][dE][dE][dE][dE][dE]AY[Sar]W[NMeNle]D[NMe1Nal]-NH2) |  |  |  |  |  | 0.158
